Data on one molecule can be found in patent US12016906B2, “Pharmaceutical composition for anaemia” (Frimline Private Limited, priority 2018, dated 2024).

Format in all cases: in vivo, male Wistar rats (Rat Rattus)
Common to all, as to conditions: IDD rats

For test [1], the system named is Iron deficient Diet (IDD) induced anaemia in rats. In words: Serum iron level in IDD induced anaemia in rats. On the procedure:
(§1) Screening of pharmaceutical composition/formulation comprising combination of Lactoferrin+Guanosine Nucleotide or a pharmaceutically acceptable salt thereof with or without optional ingredients against Iron deficient Diet (IDD) induced anaemia in rats. For this study different parameters like Hb Level, Hematocrit level, Serum Iron level, Ferroportin level, Serum Ferritin level, Hepcidin level and IL-6 Level were evaluated. The following trials were carried out by taking reference from Wang Xl, Liu S, Xu H, Yan W, Effects of recombinant human lactoferrin on improving the iron status of IDA. Wei Sheng Yan Jiu. 2012 January; 41(1):13-7, 22 and Nora M. El-Sheikh, the Protective Effect of Soybean and Thyme on Iron Deficiency Anemia in Rats, the Egyptian Journal of Hospital Medicine (2008) Vol., 33: 510-520 as available.
(§2) 72 male Wistar rats (Rat Rattus) (6 per group) were maintained in animal house in a light/dark atmosphere based on a 12 hour cycle having temperature and relative humidity in the range of 22±3° C. and 30-70% respectively. To maintain the appropriate conditions, temperature and relative humidity were recorded three times daily. All animals were acclimatized for a minimum period of five days. Animals were maintained in the test setup for minimum 30 minutes once during the acclimatization period to reduce the stress. Animals were weighed on the day of receipt and observed daily for abnormalities if any. […]
(§3) After 3 weeks of respective dietary intervention, the level of Hemoglobin was determined in each animal. […]
(§4) After 5 weeks (35 days) of respective dietary intervention, once again hemoglobin level, HCT % level and serum iron level were analyzed and then, respective drug treatment was started with continuous administration of Iron deficient diets in all groups as mentioned above in Table 1.
(§5) After 9 weeks of respective drug treatment (total after 14 weeks from start of the study—98 days), various biochemical parameters were measured to evaluate the effect of respective individual and combination therapy on iron deficient anaemia model (G3 to G12). […]

The test system is the same in test [2]. In words: Hematocrit % level in IDD induced anaemia in rats. Here is the method:
as §1, §2, §3, §4, §5

For test [3] the test system is unchanged. In words: Ferroportin level in IDD induced anaemia in rats. Here is the method:
as §1, with “2012 January; 41(1):13-7, 22 and Nora M. El-Sheikh, the Protective Effect of Soybean and Thyme on Iron Deficiency Anemia in Rats, the Egyptian Journal of Hospital Medicine (2008) Vol., 33: 510-520 as available.” left out
(§6) 72 male Wistar rats (Rat Rattus) (6 per group) were maintained in animal house in a light/dark atmosphere based on a 12 hour cycle having temperature and relative humidity in the range of 22±3° C. and 30-70% respectively. To maintain the appropriate conditions, temperature and relative humidity were recorded three times daily. […]
(§7) After 5 weeks (35 days) of respective dietary intervention, once again hemoglobin level, HCT % level and serum iron level were analyzed and then, respective drug treatment was started with continuous administration of Iron deficient diets in all groups as mentioned above in Table 1. […]

For test [4] the test system is unchanged. In words: Hepcidin level in IDD induced anaemia in rats. On the procedure: as §1, with “2012 January; 41(1):13-7, 22 and Nora M. El-Sheikh, the Protective Effect of Soybean and Thyme on Iron Deficiency Anemia in Rats, the Egyptian Journal of Hospital Medicine (2008) Vol., 33: 510-520 as available.” left out
as §6, §7

For test [5] the test system is unchanged. The test can be described thus: Serum ferritin level in IDD induced anaemia in rats. On the procedure: as §1, with “2012 January; 41(1):13-7, 22 and Nora M. El-Sheikh, the Protective Effect of Soybean and Thyme on Iron Deficiency Anemia in Rats, the Egyptian Journal of Hospital Medicine (2008) Vol., 33: 510-520 as available.” left out
as §6, §7

Test [6] shares this test system. The test can be described thus: IL-6 level in IDD induced anaemia in rats. On the procedure: as §1, with “Jiu.” for “Jiu. 2012 January; 41(1):13-7, 22 and Nora M. El-Sheikh, the Protective Effect of Soybean and Thyme on Iron Deficiency Anemia in Rats, the Egyptian Journal of Hospital Medicine (2008) Vol., 33: 510-520 as available.”
72 male Wistar rats (Rat Rattus) (6 per group) were maintained in animal house in a light/dark atmosphere based on a 12 hour cycle having temperature and relative humidity in the range of 22±3° C. and 30-70% respectively. To maintain the appropriate conditions, temperature and relative humidity were recorded three times daily. All animals were acclimatized for a minimum period of five days. […]
as §7

The test system is the same in test [7]. The test can be described thus: Hb level in IDD induced anaemia in rats. On the procedure:
as §1, with “Jiu.” for “Jiu. 2012 January; 41(1):13-7, 22 and Nora M. El-Sheikh, the Protective Effect of Soybean and Thyme on Iron Deficiency Anemia in Rats, the Egyptian Journal of Hospital Medicine (2008) Vol., 33: 510-520 as available.”
as §2, with “any. Detailed records of acclimatization were also maintained. Rats were housed 6 per cage in clean, sterilized Polypropylene cages.” for “any.”
After 3 weeks of respective dietary intervention, the level of Hemoglobin was determined in each animal.
as §4, §5

Setting [8] is: Day 98, after 9 weeks of treatment p.o.

B1: Lactoferrin: multifunctional globular glycoprotein of the transferrin family, about 80 kDa; individual component group (protein, UniProt P02788 20-710, looked up)
Lactotransferrin: GRRRSVQWCAVSQPEATKCFQWQRNMRKVRGPPVSCIKRDSPIQCIQAIAENRADAVTLDGGFIYEAGLAPYKLRPVAAEVYGTERQPRTHYYAVAVVKKGGSFQLNELQGLKSCHTGLRRTAGWNVPIGTLRPFLNWTGPPEPIEAAVARFFSASCVPGADKGQFPNLCRLCAGTGENKCAFSSQEPYFSYSGAFKCLRDGAGDVAFIRESTVFEDLSDEAERDEYELLCPDNTRKPVDKFKDCHLARVPSHAVVARSVNGKEDAIWNLLRQAQEKFGKDKSPKFQLFGSPSGQKDLLFKDSAIGFSRVPPRIDSGLYLGSGYFTAIQNLRKSEEEVAARRARVVWCAVGEQELRKCNQWSGLSEGSVTCSSASTTEDCIALVLKGEADAMSLDGGYVYTAGKCGLVPVLAENYKSQQSSDPDPNCVDRPVEGYLAVAVVRRSDTSLTWNSVKGKKSCHTAVDRTAGWNIPMGLLFNQTGSCKFDEYFSQSCAPGSDPRSNLCALCIGDEQGENKCVPNSNERYYGYTGAFRCLAENAGDVAFVKDVTVLQNTDGNNNEAWAKDLKLADFALLCLDGKRKPVTEARSCHLAMAPNHAVVSRMDKVERLKQVLLHQQAKFGRNGSDCPDKFCLFQSETKNLLFNDNTECLARLHGKTTYEKYLGPQYVAGITNLKKCSTSPLLEACEFLRK
Turning to B1, in test [1] (Day 35, before treatment), the “Serum IRON Pre-treatment” value was found to be 3.08 ppm. Further, the “Serum IRON Post-treatment” value in test [1] (setting [8]) came out at 5.31 ppm. In addition, the “Serum IRON % Change compared to Disease control” value in test [1] (Day 98) worked out at 99.1%. In addition, the “Hematocrit Pre-treatment” value in test [2] (Day 35, before treatment) was 35.33%. Also, the “Hematocrit Post-treatment” value in test [2] (setting [8]) worked out at 40.17%. Also, the “Hematocrit % Change compared to Disease control” value in test [2] (Day 98) is on record as 56.3%. In addition, the “Ferroportin Post-treatment” value in test [3] (setting [8]) was 3.6 ng/mL. Moreover, the “Ferroportin % Change compared to Disease control” value in test [3] (Day 98) came out at 31.4%. In test [4] (setting [8]), the “Hepcidin Post-treatment” value is 3830 ng/mL. Also, the “Hepcidin % Change compared to Disease control” value in test [4] (Day 98) is listed as −13.0%. Also, in test [5] (setting [8]), the “Ferritin Post-treatment” value is 680 ng/mL. In addition, the “Ferritin % Change compared to Disease control” value in test [5] (Day 98) is reported as −8.1%. Further, the “IL-6 Post-treatment” value in test [6] (setting [8]) worked out at 57.2 pg/mL. In addition, the “IL-6 % Change compared to Disease control” value in test [6] (Day 98) is reported as −8.2%. For the same molecule, the Hemoglobin Pre-treatment in test [7] (Day 35, before treatment) came to 8.8 g/dL. In addition, in test [7] (setting [8]), the Hemoglobin Post-treatment is 10.3 g/dL. Moreover, in test [7] (Day 98), the “Hemoglobin % Change compared to Disease control” value came to 58.8%.
